Test results published in publication PMC5320558, “The general PTS component HPr determines the preference for glucose over mannitol” (Scientific Reports, 2017).

B1: Untagged MtlR (mannitol operon repressor) (natural protein, E. coli, UniProt P0AF10 1-195, looked up)
chain: MVDQAQDTLRPNNRLSDMQATMEQTQAFENRVLERLNAGKTVRSFLITAVELLTEAVNLLVLQVFRKDDYAVKYAVEPLLDGDGPLGDLSVRLKLIYGLGVINRQEYEDAELLMALREELNHDGNEYAFTDDEILGPFGELHCVAALPPPPQFEPADSSLYAMQIQRYQQAVRSTMVLSLTELISKISLKKAFQK
notes: MtlR, transcriptional repressor of the mtl operon, E. coli; monomer approximately 22.0 kDa; Eluted as a tetramer in gel filtration; source: overexpressed, purified (MonoQ, Superdex 75)

Assays:
[1] = target: Untagged HPr (wild type) (E. coli) (UniProt P0AA04); assay: SEC; gel filtration on Superose 12 10/300 GL of MtlR alone, HPr alone and their mixture; fractions analysed by SDS-PAGE
[2] = target: Untagged HPr (wild type) (E. coli) (UniProt P0AA04); assay: SPR; HPr immobilised on a CM5 sensor chip, various concentrations of MtlR applied; BIAcore 3000; BIAevaluation, assuming a 1:1 interaction
[3] = target: the molecule itself; assay: SEC; gel filtration on Superose 12 10/300 GL of MtlR alone, HPr alone and their mixture; fractions analysed by SDS-PAGE

Molecule | stoichiometry N [1] | Kd [2] [nM] | stoichiometry N [3]
Untagged MtlR (mannitol operon repressor) (from UniProt P0AF10 1-195) (natural protein) | 1 HPr:MtlR | 62.2 | –
B1 | – | – | 4
